Laboratory results taken from the nanobody polyreactivity screen of Harvey et al. (2022).

Experiment: yeast display, Sf9 membrane polyspecificity reagent, FACS + sequencing; frameworks hold sequencing errors
Procedure, shortened: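 Nanobodies from a synthetic yeast display library (Saccharomyces cerevisiae BJ5465), induced 36–48 hours with galactose, were stained 1 hour at 4 °C with 10% biotinylated, detergent-solubilized Sf9 membrane reagent, enriched on streptavidin microbeads, then FACS-sorted. Anti-HA (expression) and streptavidin (reagent binding) fluorescence set low and high (top ~1%) gates. Polyreactivity labels come from the gate of origin. Genes were colony-PCR amplified, MiSeq 2 × 250 sequenced and filtered by CDR length.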

Sequence | polyreactivity (PSR sort gate)
QVQLVESGGGLVQAGGSLRLSCAASGRIFTYYTMAWYRQAPGKERELVAAISWSGGRTYYADSVKGRFTISRDNAKNTVYLQMNSLKPEDTAVYYCARRRAVRFYYWGQGTQVTVSS | high polyreactivity
QVQLVESGGGLVQAGGSLRLSCAASGRIFTYYTMGWYRQAPAKYREFVAAISWSGTSTYYADSVKGRFTISRDNAKNTFYLQMNSLKPEDTAVYYFAARDPPRAGYDYWGQGTHVTVSS | high polyreactivity
QVQLVESGGGLVQAGGSLRLSCAASGRIFVANAMGWYRQAPGKERELVAAISGRGSRTYYADSVKGRFTISRDNAKNAVYLQMNSLKPEDTAVYYCNARQRRNPGGYGYWGQGTQVTVSS | high polyreactivity
QVQLVESGGGLVQAGGSLRLSCAASGRIFVDNAMGWYRQAPGKERELVATISWSGGSTYADSVKGRFTISRDNAKNTVYLQMNSLKPEDTAVYYCAADGSWQFYTLYQEFDYWGQGTQVTVSS | low polyreactivity
QVQLVESGGGLVQAGGSLRLSCAASGRIFVFNAMGWYRQAPGKEREFVAVISTGGGSTYYADSVKGRFTISRDNAKNTVYLQMNSLKPEDTAVYYCAAEWRVYYATYGYWGQGTQVTVSS | high polyreactivity
QVQLVESGGGLVQAGGSLRLSCAASGRIFVGYAMGWYRQAPGKEREFVAAITFRGGTTYYADSVKGRFTITRDYAKNTVYLQMNSLKPEDTAVYYCAVPLYLYSVEYGYWGQGNQVTVSS | low polyreactivity
QVQLVESGGGLVQAGGSLRLSCAASGRIFVGYAMGWYRQAPGKETELVAAISRDGDNTFYADSVKGRFTISRDNAKNTVYLQMNSLKPEDTAVYYCAVDYWVWYGSAYAYDYYWGQGTQVTVSS | low polyreactivity
QVQLVESGGGLVQAGGSLRLSCAASGRIFVGYPMGWYRQAPGKERELVAAITSGGSTYYADSVKGRFTISRDNAKNTVSFQMNSLKPEDTAVYYCNAAYQFDSYHLGGYRYEYWGQGTQVTVSS | low polyreactivity
QVQLVESGGGLVQAGGSLRLSCAASGRIFVGYYAMGWYRQAPGKERELVAAITIGGRTYYADSVKGRFTISRDNAKNTVYLQMNSLKPEDTAVYYCAASKYTRAYQEYGYWGQGTQVTVSS | high polyreactivity
QVQLVESGGGLVQAGGSLRLSCAASGRIFVHYVMGWYRQAPGKERELVAAITVSGGGTYYADSVKGRFTISRDNAKNTVYFQMNSLTPEDTAVYYCNAVPHPYDWGQGTQLTVSS | low polyreactivity
QVQLVESGGGLVQAGGSLRLSCAASGRIFVINAMGWYRQAPGKEREFVAGITSSGNTNYADSVKGRFTISRDNAKNTVYLQMNSLKPEDTAVYYCNAQVYLTWLTYWLYYPPNDYWGQGTQVTVSS | low polyreactivity
QVQLVESGGGLVQAGGSLRLSCAASGRIFVINAMGWYRQAPGKERELVAAISQSGGSTYYADSVKGRFTISRDNAKNNVYLQMNSLKPEDTAVYYCNALSNVPYDYWGQGTQVTVSS | low polyreactivity
QVQLVESGGGLVQAGGSLRLSCAASGRIFVINAMGWYRQAPGKERELVAAISRRGANTYYADSVKGRFTISRDNAKNTVYLQMNSLKPEDTAVYYCNKVTVYRFRGDSWGQGTQVTVSS | high polyreactivity
QVQLVESGGGLVQAGGSLRLSCAASGRIFVINAMGWYRQAPGKERELVADITWSGGSTYADSVKGRFTISRDNAKNTVYLQMNSLKPEETAVYYCAKQRGGQPRSSTYYYWGQGTQVTVSS | high polyreactivity
QVQLVESGGGLVQAGGSLRLSCAASGRIFVKYAMGWYRQAPGKERELVARITRGGRTNYADSVKGRFTISRDNAKNTVYLQMNSLKPEDTAVYYCNAGWGMRLSWLGNYWGQGTQVTVSS | high polyreactivity
QVQLVESGGGLVQAGGSLRLSCAASGRIFVKYSMGWYRQAPGKERELVAAISKSGGSTYYADSVKGRFTISRDNAKNTVYLQMNSLKPEDTAVYYCATRSRDQYSVSYRLDYWGQGTQVTVSS | low polyreactivity
QVQLVESGGGLVQAGGSLRLSCAASGRIFVLYAMGWYRQAPGKERELVAAITSDGSSTYYADSVKGRFTISRDNAKNTVYLQMISLKPEDNAVYYCNKVQGWARYRSGKDMGYWGQGTQVTVSS | low polyreactivity
QVQLVESGGGLVQAGGSLRLSCAASGRIFVLYAMGWYRQAPGKERELVADITFDGGSTYYADSVKGRFTISRDNAKNTVYLQMNSLKPEDTAVSFCAARYRWSRKRYNDYDYWGQGTQVSVSS | high polyreactivity
QVQLVESGGGLVQAGGSLRLSCAASGRIFVPNAMGWYRPAPGKERELVAAISLRGGSTYYADSVKGRFTISRDNAKYTVYLQMNSLKPEDTAVYYCGWAYRYPHDYWGQGTQVTVSS | high polyreactivity
QVQLVESGGGLVQAGGSLRLSCAASGRIFVPNAMGWYRPPPGKERELVAAINWGGGSTYYADSVKGRFTISRDNAKNTVYLQMNSLKPEDTAVYYCAADHPYTIGVLPNQQFDYWGQGTQVTVSS | low polyreactivity
QVQLVESGGGLVQAGGSLRLSCAASGRIFVPNAMGWYRQAPGKERELVAAISSSGGSTYYADSVKGRFTISRDNAKNTVYLQMNSLKPEDTAVYDCNKVQSTANDYWGQGTQVTVSS | low polyreactivity

Sequence | polyreactivity (PSR sort gate)
QVQLVESGGGLVQAGGSLRLSCAASGRIFVPNPMGWYRQAPGKDRELVAAITNGGRTKYADSVKGRFTISRDNAKNTVYLQMNSLKPEDTAVYYCAADLYRWFYYWGQGTQVTVSS | high polyreactivity
QVQLVESGGGLVQAGGSLRLSCAASGRIFVPNTMGWYRQAPGKERELVAAINTGGRTYYADSVKGRFTISRDNAKNTVYLQMNSLKPEDTAVYYCAVFSLKLGYIYDYWGQGTQVTVSS | high polyreactivity
QVQLVESGGGLVQAGGSLRLSCAASGRIFVPYVMGWYRQAPGKERELVASISDSDTSTYYADSVKGRFTISRDNATNTVYLQMNSLKPEDTAVYYCNVDYWGQGTQVTVSS | low polyreactivity
QVQLVESGGGLVQAGGSLRLSCAASGRIFVTNAMGWYRQAPGKERELVAAITRGGSTNYADSVKGRFTISRDNAKNTVYLQMNSLKPEDTAVYYCAAKRRYYGPWSRIGYDYWGHGTQVTVSS | low polyreactivity
QVQLVESGGGLVQAGGSLRLSCAASGRIFVTNDMGWYRQAPGKERELVAAISLSSGSTYYADSVKGRFTISRDNAKNTVYLQMNSLKPEDTAVYYCAADIFPFGYFLFRHGYWGQGTQVTVSS | low polyreactivity
QVQLVESGGGLVQAGGSLRLSCAASGRIFVTYAMGLYRQAPGKERELVAVISWSGGSTYYADSVKGRFTISRDNAKNTVYLQMNSLKPEDTAVYYCARGLRKVRFDYWGQGTQVTVSS | low polyreactivity
QVQLVESGGGLVQAGGSLRLSCAASGRIFVTYAMGWYRQAPGKERELVAAITSRGGRTYDADSVKGRFTISRDNAKNTVYLQMNSLKPEDTAVYYCAAYPGPGARYYYWGQGTQVTVSS | high polyreactivity
QVQLVESGGGLVQAGGSLRLSCAASGRIFVTYAMGWYRQAPGKERELVAVISWSGGSTYYADSVKGRITISRDNAKNTVYLQINSLKPEDTAVYYCARGLRKVRFDYWGQGTQVTVSS | low polyreactivity
QVQLVESGGGLVQAGGSLRLSCAASGRIFVVNAMGWYRQAPGKERELVATITRSGGITYYADSVKGRFTISRDNAKNTVYLQMNSLKPEDTAVYYCNADVLFYTYYTRGRFDFDYWGQGTQVTVAS | low polyreactivity
QVQLVESGGGLVQAGGSLRLSCAASGRIFVVNDMGWYRQAPGKERELVAAINSGGRTNYADSVKGRFTISRDNAKNTVYLQMNSLKPEDTAVYYCNAKRTGPWFLHVPVYYWGQGTQVTVSS | low polyreactivity
QVQLVESGGGLVQAGGSLRLSCAASGRIFVWYAMGWYRQATGKERELVAAITRGGSTNYADSVKGRFTISRDNAKNTVYLQMNSLKPEDTAVYYCAARSPYRTRNDYWGQGTQVTVSS | low polyreactivity
QVQLVESGGGLVQAGGSLRLSCAASGRIFVYNAKGWNRQAPGKERQLVAAISYNGGGTYYADSVKGRFTISRDNAKNTVYLQMNSLKPEDTAVYYCAARYRSWTGKYEYWGQGTQVTVSS | high polyreactivity
QVQLVESGGGLVQAGGSLRLSCAASGRIFVYNAKGWYRQAAGKERELVAAISYTGGTTYYADSVKGRFTISRDNAKKTVYLQMKSLKPEDTAVFFCAALWWWNRQVRYEYWGQGTQVTVSS | low polyreactivity
QVQLVESGGGLVQAGGSLRLSCAASGRIFVYNAMGWSRQAPGKVRELVASITSSGGSTSYADSVKGRFTISRDNAKNTVYLQMNSLKPEDTAVYSCAADVQPDTRSTPEMDYWGQGTQVTVSS | low polyreactivity
QVQLVESGGGLVQAGGSLRLSCAASGRIFVYNAMGWYRQAPGKERELVAAINSGDSTYYADSVKGRFTISRDNAKNTVYLQMNSLKPEDTAVYYCAADIHYYPGYLAYDYWGQGTQVTVSS | low polyreactivity
QVQLVESGGGLVQAGGSLRLSCAASGRIFVYNVMGWSRQSPGKERELVAAISWGTGSTYADSVKGRFTISRDNAKNTVYLQMNSLKPEDTAVYYCAADWLSTKNDYWGQGTQVTVSS | low polyreactivity
QVQLVESGGGLVQAGGSLRLSCAASGRIFVYYAMGWYRQAPGKERELVAAITSRDDSTYYADSVKGRFTISRDNAKNTVYLQMNSLKPEDTAVYYCNVVPKSRDWQSYGSWGQGTQVTVSS | high polyreactivity
QVQLVESGGGLVQAGGSLRLSCAASGRIFVYYAMGWYRQAPGKERELVATISSGGSTYYADSVKGRFTISRDNAKNTVYLQMNSLKPEDTAVYYCAADNVIRYLAYYYKGDYWGQGTQVTVSS | low polyreactivity
QVQLVESGGGLVQAGGSLRLSCAASGRIFVYYAMGWYRQAPGNERELVAAITSGGTTYYADSVKGRFTISRDNAKNTVYLQMNSLKPEDTAVYYCAKVGRSDLGYDYWGQGTQVTVSS | low polyreactivity
QVQLVESGGGLVQAGGSLRLSCAASGRIFVYYTMGWYRPAPGKEREFVAAITRSGGRTYYADSVKGRFTISRDNAKNTVYLQMNSLKPEDTAVYYCNRDPTYLAYYIKYDSWGQGTQVTVSS | high polyreactivity
